Assay [1] addresses T1, GST-hMSTN 101-200aa (human, UniProt A1C2U3 101-200 (Pongo pygmaeus entry)).
T1 construct: As GST-hMSTN 1-100aa; also called sixth fragment; not shown: GST tag from the pGEX4.1 vector
T1 sequence: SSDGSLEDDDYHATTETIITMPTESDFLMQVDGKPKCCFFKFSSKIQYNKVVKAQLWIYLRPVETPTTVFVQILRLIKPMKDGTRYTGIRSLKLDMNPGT
Description: Western blot on GST tagged fragments. The source says:
(§1) Fragments of the N-terminal propeptide coding region of human latent myostatin were cloned into a pGEX4.1 vector so as to produce GST tagged propeptide fragments of 100 amino acid each, with 80 amino acid overlap (FIG. 22A). Protein expression was induced in transformed BL21 competent cells with Overnight Express Autoinduction System (Merck Millipore) and protein was extracted using the BUGBUSTER® protein extraction reagent (Novagen).
Background: Immunoblotting shows a protein as a band on a membrane.

Assay [2] has as its target T2, GST-hMSTN 121-220aa (human, UniProt A1C2U3 121-220 (Pongo pygmaeus entry)).
T2 construct: As GST-hMSTN 1-100aa; also called seventh fragment; not shown: GST tag from the pGEX4.1 vector
T2 sequence: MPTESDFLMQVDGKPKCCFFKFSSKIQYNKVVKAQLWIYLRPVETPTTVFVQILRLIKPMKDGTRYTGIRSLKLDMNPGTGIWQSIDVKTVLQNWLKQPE
Description: Western blot on GST tagged fragments.
Text: as §1

The target in assay [3] is T3, GST-hMSTN 141-241aa (human, UniProt A1C2U3 141-241 (Pongo pygmaeus entry)).
T3 construct: As GST-hMSTN 1-100aa; also called eighth fragment; not shown: GST tag from the pGEX4.1 vector
T3 sequence: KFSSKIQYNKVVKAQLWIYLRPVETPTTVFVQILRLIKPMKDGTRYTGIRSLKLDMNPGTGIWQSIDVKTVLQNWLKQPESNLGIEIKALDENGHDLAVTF
Description: Western blot on GST tagged fragments.
Text: as §1

For assay [4], the target named is T4, Cynomolgus monkey latent myostatin (cynomolgus monkey, UniProt Q95J86 25-266; Q95J86 267-375).
T4 construct: signal 1-24; also called Cyno latent myostatin
T4 sequence 1: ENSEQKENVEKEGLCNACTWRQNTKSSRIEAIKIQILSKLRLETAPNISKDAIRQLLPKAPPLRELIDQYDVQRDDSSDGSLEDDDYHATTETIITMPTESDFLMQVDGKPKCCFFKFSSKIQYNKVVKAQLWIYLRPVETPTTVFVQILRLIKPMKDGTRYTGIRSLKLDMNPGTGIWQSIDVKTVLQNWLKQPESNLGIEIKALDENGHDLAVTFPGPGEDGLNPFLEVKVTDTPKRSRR
T4 sequence 2: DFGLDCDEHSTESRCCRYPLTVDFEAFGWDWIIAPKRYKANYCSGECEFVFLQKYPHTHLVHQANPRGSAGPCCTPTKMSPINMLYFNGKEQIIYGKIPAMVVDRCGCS
Description: SPR (BIACORE T200), 37 C, pH7.4, avidity condition (capture 185 RU), 1:1 fit; pH 7.4. The method, then: (§2) The kinetic parameters of anti-latent myostatin antibodies against human, cynomolgus monkey (cyno), and mouse latent myostatin were assessed at 37° C. at pH7.4 using a BIACORE® T200 instrument (GE Healthcare). ProA/G (Pierce) was immobilized onto all flow cells of a CM4 chip using amine coupling kit (GE Healthcare). Anti-latent myostatin antibody and analytes were prepared in ACES pH7.4 (20 mM ACES, 150 mM NaCl, 1.2 mM CaCl₂), 0.05% TWEEN® 20, 0.005% NaN₃). […] Then human, cyno, or mouse latent myostatin was injected at 3.125 to 50 nM prepared by two-fold serial dilution, followed by dissociation. The sensor surface was regenerated with 25 mM NaOH. Kinetic parameters were determined by processing and fitting the data to a 1:1 binding model using BIACORE® T200 Evaluation software, version 2.0 (GE Healthcare).
(§3) All experimental settings were the same as in Example 7, except that measurements were also performed in ACES pH5.8 buffer in addition to ACES pH7.4 condition. Some antibodies were only measured against human latent myostatin. Antibody capture level was aimed at 185 RU and 18.5 RU, for avidity and affinity assay, respectively. Kinetic parameters were determined using 1:1 Binding fitting using BIACORE® T200 Evaluation software, version 2.0 (GE Healthcare).

The target of assay [5] is T5, Mouse latent myostatin (mouse, UniProt O08689 26-267; O08689 268-376).
T5 construct: signal 1-24
T5 sequence 1: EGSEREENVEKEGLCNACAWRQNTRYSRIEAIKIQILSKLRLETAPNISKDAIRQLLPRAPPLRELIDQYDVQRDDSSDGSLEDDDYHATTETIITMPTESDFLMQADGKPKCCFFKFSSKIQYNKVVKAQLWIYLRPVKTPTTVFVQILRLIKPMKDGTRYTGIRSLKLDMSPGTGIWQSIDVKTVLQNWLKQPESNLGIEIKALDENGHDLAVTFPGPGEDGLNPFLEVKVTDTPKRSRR
T5 sequence 2: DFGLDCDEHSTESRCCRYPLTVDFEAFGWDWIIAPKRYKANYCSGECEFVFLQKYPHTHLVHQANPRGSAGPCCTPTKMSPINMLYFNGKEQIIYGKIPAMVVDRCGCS
Described as above. On the procedure:
as §2, §3

The target of assay [6] is T6, Human latent myostatin (human, UniProt O14793 25-266; O14793 267-375).
T6 construct: Biotinylated in the ELISAs; also called human myostatin latent form
T6 sequence 1: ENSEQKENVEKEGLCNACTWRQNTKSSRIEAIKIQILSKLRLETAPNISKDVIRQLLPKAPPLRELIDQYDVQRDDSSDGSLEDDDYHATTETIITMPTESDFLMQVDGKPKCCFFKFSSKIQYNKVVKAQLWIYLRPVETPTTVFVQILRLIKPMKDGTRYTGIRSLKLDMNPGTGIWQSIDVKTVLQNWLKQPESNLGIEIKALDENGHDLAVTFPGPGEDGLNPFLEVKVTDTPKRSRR
T6 sequence 2: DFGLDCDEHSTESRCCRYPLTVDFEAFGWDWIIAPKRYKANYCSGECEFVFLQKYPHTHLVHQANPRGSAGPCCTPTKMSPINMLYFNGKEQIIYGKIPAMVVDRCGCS
The assay is described as above. The method, then: as §2, §3

Assay [7] addresses T4, Cynomolgus monkey latent myostatin. Description: SPR (BIACORE T200), 37 C, pH7.4, 1:1 fit; title prints avidity, by the text the affinity condition (capture 18.5 RU). The method, then: as §2, §3
Background: In SPR one partner is held on a chip, and binding of the other changes the refractive index at the surface.

Assay [8] deals with T5, Mouse latent myostatin. Described as above. On the procedure: as §2, §3
Assay [9] addresses T6, Human latent myostatin. Described as above. On the procedure:
as §2, §3

For assay [10], the target named is T4, Cynomolgus monkey latent myostatin. Description: SPR (BIACORE T200), 37 C, pH5.8, avidity condition (capture 185 RU), 1:1 fit; pH 5.8. On the procedure:
as §2, §3

The target in assay [11] is T5, Mouse latent myostatin. The assay is described as above. On the procedure: as §2, §3
Assay [12] concerns the target T6, Human latent myostatin. The description is as above. The method, then: as §2, §3
Assay [13] concerns the target T7, human FcγRIIb constitutively expressed on MDCK cells (human, UniProt P31994 43-310).
T7 sequence (looked up): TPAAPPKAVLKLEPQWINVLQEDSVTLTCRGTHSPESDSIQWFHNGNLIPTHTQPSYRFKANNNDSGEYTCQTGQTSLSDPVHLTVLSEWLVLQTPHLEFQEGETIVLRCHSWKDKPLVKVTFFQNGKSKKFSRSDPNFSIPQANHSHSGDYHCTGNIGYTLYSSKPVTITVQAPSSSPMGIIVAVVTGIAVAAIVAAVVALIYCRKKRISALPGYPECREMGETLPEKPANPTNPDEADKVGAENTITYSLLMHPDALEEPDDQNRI
Description: cell-based or functional assay.

B1: MST1032 (as tested in Example 26) (antibody, V domains shown)
VH: QSLEESGGRLVTPGGSLTVTCRVSGIDLSSYDISWVRQAPGKGLEWIGIISYAGSTYYASWAKGRFTISKTSTTVDLKMTSLTTEDTATYFCARGVPAYSTGGDLWGPGTLVTVSS
VL: AQVLTQTASSVSAAVGGTVTINCQSSQSVYDNNWLSWFQQKPGQPPKLLIYWASTLASGVPSRFKGSGSGTQFTLTISDLECDDAATYYCAGGYGGGLYAFGGGTKVEIK
As to B1, the binding result in [1], in [2] and in assay [3] was “no binding” in each case.

B2: MS_M103205H714-SG1/M103202L861-SK1 (antibody, human IgG1, kappa, V domains shown)
VH: QVTLKESGPVLVKPTETLTLTCTVSGIDLSHTDISWVRQAPGKGLEWVGIISYAGSTYYASWAKGRLTISKDTSKNQVVLTMTNMDPVDTATYYCARGVPAYSHGGDLWGQGTLVTVSS
VL: DIVMTQSPATLSLSPGERATLSCTSSQSVYHNNWLSWFQQKPGQPPKLLIYWASTLAYGVPSRFSGSGSGTDFTLTISSLQPEDAATYYCAGGYGGGRYAFGQGTKVEIKR
notes: also called MS1032LO01-SG1; MSLO-01
With B2, the Kd in assay [4] was found to be 0.165 nM; in assay [5], 0.149 nM; in assay [6] it was 0.17 nM; in [7] it was 0.954 nM; in assay [8], 0.713 nM; in assay [9] it was 0.788 nM. Besides, the Kd in [10] came out at 8.9 nM; in assay [11], 6.15 nM; in assay [12], 19.9 nM. In addition, the koff (in general, the first-order rate constant of dissociation) in assay [4] was 0.000197 s⁻¹; in assay [5], 0.000217 s⁻¹; in assay [6], 0.000216 s⁻¹; in assay [7], 0.0011 s⁻¹; in assay [8], 0.00107 s⁻¹; in [9], 0.00129 s⁻¹. The koff in assay [10] was 0.0068 s⁻¹; in assay [11], 0.00625 s⁻¹; in [12] it was 0.0242 s⁻¹. The kon (as a rule, the second-order rate constant of association) in assay [4] is 1.19e+06 M⁻¹ s⁻¹; in assay [5], 1.45e+06 M⁻¹ s⁻¹; in [6] it was 1.27e+06 M⁻¹ s⁻¹; in assay [7], 1.15e+06 M⁻¹ s⁻¹; in [8], 1.5e+06 M⁻¹ s⁻¹; in [9], 1.64e+06 M⁻¹ s⁻¹. For the same molecule, the kon in assay [10] was 764000 M⁻¹ s⁻¹; in assay [11], 1.02e+06 M⁻¹ s⁻¹; in assay [12], 1.22e+06 M⁻¹ s⁻¹.

B3: MS103240H795-TT14/M103202L1045-SK1 (antibody, human IgG1, kappa)
heavy: QVQLVESGGGLVQPGGSLRLSCAVSGIDLSHDDISWVRQAPGKGLEWVSIISYAGSTYYASWAKGRLTISKDTSKNQVVLTMTNMDPVDTATYYCARGVPAYSHGGDLWGQGTLVTVSSASTKGPSVFPLAPSSKSTSGGTAALGCLVKDYFPEPVTVSWNSGALTSGVHTFPAVLQSSGLYSLSSVVTVPSSSLGTQTYICNVNHKPSNTKVDKKVEPKSCDKTHTCPPCPAPEYLGGDSVFLFPPKPKDVLMISRTPEVTCVVIDVSHEDPEVKFNWYVDGVEVHNAKTKPREEQYNSTYRVVSVLPVLHQDWLNGKEYKCKVSNKALPKPIEKTISKAKGQPREPQVYTLPPSREEMTKNQVSLTCLVKGFYPSDIAVEWESNGQPENNYKTTPPVLDSDGSFFLYSKLTVDKSRWQQGNVFSCSVMHEALHNHYTQKSLSLSP
light: DIVMTQSPATLSLSPGERATLSCTTSQSVYHENWLSWFQQKPGQPPKLLIYWASTLAYGVPSRFSGSGSGTDFTLTISSLQPEDAATYYCAGGYGGGRYAFGQGTKVEIKRTVAAPSVFIFPPSDEQLKSGTASVVCLLNNFYPREAKVQWKVDNALQSGNSQESVTEQDSKDSTYSLSSTLTLSKADYEKHKVYACEVTHQGLSSPVTKSFNRGEC
Take B3: the “cell imaging: fluorescence intensity of labelled human latent myostatin taken up as antigen-antibody complex into MDCK cells expressing human FcγRIIb, relative to SG1” value in assay [13] came out at 7.5 fold.

B4: MS103240H795-TT33/M103202L1045-SK1 (antibody, human IgG1, kappa)
heavy: QVQLVESGGGLVQPGGSLRLSCAVSGIDLSHDDISWVRQAPGKGLEWVSIISYAGSTYYASWAKGRLTISKDTSKNQVVLTMTNMDPVDTATYYCARGVPAYSHGGDLWGQGTLVTVSSASTKGPSVFPLAPSSKSTSGGTAALGCLVKDYFPEPVTVSWNSGALTSGVHTFPAVLQSSGLYSLSSVVTVPSSSLGTQTYICNVNHKPSNTKVDKKVEPKSCDKTHTCPPCPAPEYLGGDSVFLFPPKPKDVLMISRTPEVTCVVIDVSHEDPEVKFNWYVDGVEVHNAKTKPREEQYNSTYRVVSVLPVLHRDWLNGKEYKCKVSNKALPKPIEKTISKAKGQPREPQVYTLPPSREEMTKNQVSLTCLVKGFYPSDIAVEWESNGQPENNYKTTPPVLDSDGSFFLYSKLTVKKSRWQQGNVFSCSVMHEALHNHYTQKSLSLSP
light: DIVMTQSPATLSLSPGERATLSCTTSQSVYHENWLSWFQQKPGQPPKLLIYWASTLAYGVPSRFSGSGSGTDFTLTISSLQPEDAATYYCAGGYGGGRYAFGQGTKVEIKRTVAAPSVFIFPPSDEQLKSGTASVVCLLNNFYPREAKVQWKVDNALQSGNSQESVTEQDSKDSTYSLSSTLTLSKADYEKHKVYACEVTHQGLSSPVTKSFNRGEC
Take B4: the “cell imaging: uptake of labelled antigen-antibody complex into MDCK cells expressing human FcγRIIb, relative to SG1” value in assay [13] came to 36 fold.
